# Measurements: patent US5474928A, “Arginine deiminase from a Mycoplasma arginini strain” (Nippon Mining Company, Limited, priority 1989, dated 1995)
# B1: Mycoplasma arginini (IFO 14476) arginine deiminase (EC 3.5.3.6), present invention, amino acid sequence of FIG. 4 (Mycoplasmopsis arginini) (protein)
# chain: MSVFDSKFKGIHVYSEIGELESVLVHEPGREIDYITPARLDELLFSAILESHDARKEHKQFVAELKANDINVVELIDLVAETYDLASQEAKDKLIEEFLEDSEPVLSEEHKVVVRNFLKAKKTSRELVEIMMAGITKYDLGIEADHELIVDPMPNLYFTRDPFASVGNGVTIHYMRYKVRQRETLFSRFVFSNHPKLINTPWYYDPSLKLSIEGGDVFIYNNDTLVVGVSERTDLQTVTLLAKNIVANKECEFKRIVAINVPKWTNLMHLDTWLTMLDKDKFLYSPIANDVFKFWDYDLVNGGAEPQPVENGLPLEGLLQSIINKKPVLIPIAGEGASQMEIERETHFDGTNYLAIRPGVVIGYSRNEKTNAALEAAGIKVLPFHGNQLSLGMGNARCMSMPLSRKDVKW
# notes: Arginine deiminase was purified from the M. arginini cell extract; endogenous in cells; host or cells: Mycoplasma arginini IFO 14476 cells (strain from the Institute for Fermentation, Osaka); enzyme purified in house by three chromatography steps
# Substrate: N=C(N)NCCC[C@H](N)C(=O)O
# Assay: Km determination by Lineweaver-Burk plot analysis, citrulline formation assay
# Type: biochemical, Mycoplasma arginini
# Details: other: purified enzyme from M. arginini, substrate L-arginine, pH 7.0
# Experimental: The activity of arginine deiminase can be determined by causing it to produce citrulline using the method reported by Fenske et. al. [J. Bacteriol. 126, 501-510 (1976)], and by measuring the amount of the yields using the method given by Archibald [J. Biol. Chem. 156, 121-142 (1944)].
# Specifically, 20 μl of arginine deiminase solution is added to 1.0 ml of 10 mM arginine [dissolved in 0.1M phosphate buffer of pH 7.0], then an enzyme reaction is allowed to take place at 37° C. for 10 minutes, and the reaction is terminated by adding 1 ml of mixed acid solution (H2 SO4 :H3 PO4 =1:3). Then, the resultant reactive solution is added with 25 μl of 3% aqueous diacetylmonooxim solution, heated at 100° C. for 20 minutes under a light-shielded condition, left to cool under a room temperature for 30 minutes, and then the amount of the citrulline yield is measured quantitatively by measuring the absorbence at 490 nm. The activity of arginine deiminase producing 1 μmol of citrulline in one minute is defined as 1 unit.
# v) Km value and Vmax value
# By the Lineweaver-Burk plot analysis Km and Vmax were determined as 0.2 mM and 50 U/mg, respectively.
protein,measurement,value
B1,Km,200 µM
